IntAct's records for PubMed 26280580

B1: Ras-related protein Rap-1A (Homo sapiens), P62834 (parent)
chain: MREYKLVVLGSGGVGKSALTVQFVQGIFVEKYDPTIEDSYRKQVEVDCQQCMLEILDTAGTEQFTAMRDLYMKNGQGFALVYSITAQSTFNDLQDLREQILRVKDTEDVPMILVGNKCDLEDERVVGKEQGQNLARQWCNCAFLESSAKSKINVNEIFYDLVRQINRKTPVEKKKPKKKSCLLL

Variants of: B1
Conditions: with braf_human BRAF

| Variant | effect of a mutation on the interaction |
| --- | --- |
| MREYKLVVLGSGGVGKSALTVQFVQGIFVEKYDPTIEDSYRKQVEVDCQQCMLEILDTAGTEQFTAMRDLYMKNGQGFALVYSITAQSTFNDLQDLREQILRVKDTEDVPMILVGNKCDLEDERVVGKEQGQNLARQWCNCAFLESSAKSKINVNEIFYDLVTQINRKTPVEKKKPKKKSCLLL [R163T] | with no effect |
